The values below come from patent publication US9051581B2, “Defense peptides against fungal infection and method of their use” (The Curators of the University of Missouri, priority 2010, dated 2015).

Experiment [1] deals with Phakopsora pachyrhizi urediniospores. Nature of the experiment: In vitro inhibition of urediniospore germ tube growth by ZmCKX1-peptides. The following applies: for decrease of germ tube growth in comparison to water: 230 μM (highest concentration); for decrease of germ tube growth in comparison to water / reduction of average germ tube length in comparison to water: 8 h incubation; for reduction of average germ tube length in comparison to water: 58 μM. It is filed as cell-based. The method, then: Purified ZmCKX1-Sp2 and ZmCKX1-Sp39 peptides were assessed in vitro for the ability to inhibit urediniospore germination. A 25-μl water droplet containing 300 freshly harvested MOS-2008 urediniospores was incubated on a glass slide in the presence of either ZmCKX1-Sp2 or ZmCKX1-Sp39. Control treatments included urediniospores incubated in water or in the presence of ZmCKX1 alone. Germ tube growth was visualized over time and quantified by image capture and analyses as described previously.

The subject of experiment [2] is 20 kDa Phakopsora pachyrhizi protein. Nature of the experiment: Far-western assay for P. pachyrhizi proteins that bind the peptides. Type of experiment: binding. The following applies: protein from germinated urediniospores; bait protein, ZmCKX1 antibody detection. The method, then: A far-western assay was used to identify P. pachyrhizi proteins that bind to the disclosed peptides (3, 35). To prepare fungal proteins, MOS-2008 urediniospores were germinated and grown for 4 h. Fungal tissues were ground in liquid nitrogen and suspended in phosphate buffer (pH. 6.5) containing 0.1 M mannitol and Tween-20. Fungal debris was separated from soluble material by centrifugation, and the protein concentration of the soluble fraction was determined. Equal amounts of protein were loaded into the wells of an acrylamide gel, separated by SDS-PAGE, and then transferred to PVDF membrane. The membranes were incubated with a bait protein that consisted of the ZmCKX1 scaffold alone, ZmCKX1-Sp2, or ZmCKX1-Sp39. The unbound bait proteins were washed off of the blot, and the blot was incubated with ZmCKX1 polyclonal antibody (1), followed by a second antibody, anti-rabbit IgG conjugated to alkaline phosphatase (Promega, Madison, Wis.).

In experiment [3] the test system is Phakopsora pachyrhizi urediniospores. Nature of the experiment: Inhibition of soybean leaf infection (rust lesion formation) by ZmCKX1-peptides. It is filed as in vivo. Particulars: 7 days of incubation; 115 μM; water close to 50%. The method, then:
Young, fully expanded leaves were excised from soybean plants (Williams 82) and used for assessment of ZmCKX1-peptide inhibition. Two 10-μl droplets of each ZmCKX1-peptide-urediniospore mixture or control treatment were applied to the upper surface of a single leaf. Each droplet contained 50 urediniospores mixed with either ZmCKX1-Sp2 or ZmCKX1-Sp39 at a final concentration of 115 μM. Control treatments included urediniospores in water or mixed with 115 μM ZmCKX1. Droplet treatments were replicated four times.
Inoculated leaves were incubated for 8 h before rinsing away droplets and drying as described previously. Leaves were transferred to sealed Petri dishes and incubated in a growth chamber at 22° C. and 90% RH, under a 12 h light/dark cycle. The percentage of inoculations that produced rust lesions was recorded at 3 to 4 day intervals for 27 days.

B1: ZmCKX1: recombinant maize cytokinin oxidase scaffold without peptide insert, control (protein)
chain: LAAGTPALGDDRGRPWPASLAALALDGKLRTDSNATAAASTDFGNITSALPAAVLYPSSTGDLVALLSAANSTPGWPYTIAFRGRGHSLMGQAFAPGGVVVNMASLGDAAAPPRINVSADGRYVDAGGEQVWIDVLRASLARGVAPRSWNDYLYLTVGGTLSNAGISGQAFRHGPQISNVLEMDVITGHGEMVTCSKQLNADLFDAVLGGLGQFGVITRARIAVEPAPARARWVRFVYTDFAAFSADQERLTAPRPGGGGASFGPMSYVEGSVFVNQSLATDLANTGFFTDADVARIVALAGERNATTVYSIEATLNYDNATAAAAAVDQELASVLGTLSYVEGFAFQRDVAYAAFLDRVHGEEVALNKLGLWRVPHPWLNMFVPRSRIADFDRGVFKGILQGTDIVGPLIVYPLNKSMWDDGMSAATPSEDVFYAVSLLFSSVAPNDLARLQEQNRRILRFCDLAGIQYKTYLARHTDRSDWVRHFGAAKWNRFVEMKNKYDPKRLLSPGQDIFN
For B1, the “decrease of germ tube growth in comparison to water” value (“decrease of germ tube growth” for short) in experiment [1] is reported as 26%. Moreover, the “germ tube growth inhibition” value in experiment [1] (all concentrations except 230 μM, 8 h) is listed as “less than 10%”. In addition, the “detection of fungal protein band in far-western blot” value (shortened to “detection of fungal protein band”) in experiment [2] is “absent”.

B2: ZmCKX1-Sp2: peptide Sp2 fused to the C-terminus of the scaffold protein ZmCKX1, expressed in Pichia pastoris (protein)
chain: LAAGTPALGDDRGRPWPASLAALALDGKLRTDSNATAAASTDFGNITSALPAAVLYPSSTGDLVALLSAANSTPGWPYTIAFRGRGHSLMGQAFAPGGVVVNMASLGDAAAPPRINVSADGRYVDAGGEQVWIDVLRASLARGVAPRSWNDYLYLTVGGTLSNAGISGQAFRHGPQISNVLEMDVITGHGEMVTCSKQLNADLFDAVLGGLGQFGVITRARIAVEPAPARARWVRFVYTDFAAFSADQERLTAPRPGGGGASFGPMSYVEGSVFVNQSLATDLANTGFFTDADVARIVALAGERNATTVYSIEATLNYDNATAAAAAVDQELASVLGTLSYVEGFAFQRDVAYAAFLDRVHGEEVALNKLGLWRVPHPWLNMFVPRSRIADFDRGVFKGILQGTDIVGPLIVYPLNKSMWDDGMSAATPSEDVFYAVSLLFSSVAPNDLARLQEQNRRILRFCDLAGIQYKTYLARHTDRSDWVRHFGAAKWNRFVEMKNKYDPKRLLSPGQDIFNMLESHAWPPRAI
On to B2, for which, in experiment [1], the “reduction of average germ tube length in comparison to water” value was found to be 52% and the “decrease of germ tube growth” value is 94%. The “inoculations that produced lesions” value in experiment [3] came to 13%. Moreover, in experiment [2], the “detection of fungal protein band” value was “specifically interacted with a fungal protein approximately 20 kDa in size”.

B3: ZmCKX1-Sp39: peptide Sp39 fused to the C-terminus of the scaffold protein ZmCKX1, expressed in Pichia pastoris (protein)
chain: LAAGTPALGDDRGRPWPASLAALALDGKLRTDSNATAAASTDFGNITSALPAAVLYPSSTGDLVALLSAANSTPGWPYTIAFRGRGHSLMGQAFAPGGVVVNMASLGDAAAPPRINVSADGRYVDAGGEQVWIDVLRASLARGVAPRSWNDYLYLTVGGTLSNAGISGQAFRHGPQISNVLEMDVITGHGEMVTCSKQLNADLFDAVLGGLGQFGVITRARIAVEPAPARARWVRFVYTDFAAFSADQERLTAPRPGGGGASFGPMSYVEGSVFVNQSLATDLANTGFFTDADVARIVALAGERNATTVYSIEATLNYDNATAAAAAVDQELASVLGTLSYVEGFAFQRDVAYAAFLDRVHGEEVALNKLGLWRVPHPWLNMFVPRSRIADFDRGVFKGILQGTDIVGPLIVYPLNKSMWDDGMSAATPSEDVFYAVSLLFSSVAPNDLARLQEQNRRILRFCDLAGIQYKTYLARHTDRSDWVRHFGAAKWNRFVEMKNKYDPKRLLSPGQDIFNYNKPSFQDHSVI
On to B3, for which, in experiment [1], the “reduction of average germ tube length in comparison to water” value was 36% and the “decrease of germ tube growth” value is 91%. Also, the “inoculations that produced lesions” value in experiment [3] came out at 16%. Moreover, the “detection of fungal protein band” value in experiment [2] is reported as “specifically interacted with a fungal protein approximately 20 kDa in size”.
